Target: the molecule itself
Assay: SEC-MALS; samples at 1 mg/ml, Superdex 200 Increase 10/300, 20 mM Tris-HCl, 150 mM NaCl, 0.5 mM TCEP, pH 8.0; run in triplicates

B1: ΔN-TLK2, unphosphorylated (N-terminal deletion, with coiled-coil region, kinase domain and C-tail) (domain or fragment, human, UniProt Q86UE8 191-772, looked up)
chain: TEHSCSSQKQISIQHRQTQSDLTIEKISALENSKNSDLEKKEGRIDDLLRANCDLRRQIDEQQKMLEKYKERLNRCVTMSKKLLIEKSKQEKMACRDKSMQDRLRLGHFTTVRHGASFTEQWTDGYAFQNLIKQQERINSQREEIERQRKMLAKRKPPAMGQAPPATNEQKQRKSKTNGAENETPSSGNTELKDTAPALGAHSLLRLTLAEYHEQEEIFKLRLGHLKKEEAEIQAELERLERVRNLHIRELKRIHNEDNSQFKDHPTLNDRYLLLHLLGRGGFSEVYKAFDLTEQRYVAVKIHQLNKNWRDEKKENYHKHACREYRIHKELDHPRIVKLYDYFSLDTDSFCTVLEYCEGNDLDFYLKQHKLMSEKEARSIIMQIVNALKYLNEIKPPIIHYDLKPGNILLVNGTACGEIKITDFGLSKIMDDDSYNSVDGMELTSQGAGTYWYLPPECFVVGKEPPKISNKVDVWSVGVIFYQCLYGRKPFGHNQSQQDILQENTILKATEVQFPPKPVVTPEAKAFIRRCLAYRKEDRIDVQQLACDPYLLPHIRKSVSTSSPAGAAIASTSGASNNSSSN
notes: Tousled-like kinase 2 (TLK2), human; lacks the 1-190 N-terminal fragment, holds the 191-450 region around the CC domains, the kinase domain and the C-tail; the text says once '1-191' and once '1-190' for the missing segment; also called TLK2L; source: E. coli NiCo21(DE3) or Rosetta (DE3) pLysS, co-expressed with lambda phosphatase, purified (Ni-NTA, monoQ, SEC)
  stoichiometry N: 2

B2: ΔN-TLK2-p, phosphorylated ΔN-TLK2 (domain or fragment, human, UniProt Q86UE8 191-772, looked up)
chain: TEHSCSSQKQISIQHRQTQSDLTIEKISALENSKNSDLEKKEGRIDDLLRANCDLRRQIDEQQKMLEKYKERLNRCVTMSKKLLIEKSKQEKMACRDKSMQDRLRLGHFTTVRHGASFTEQWTDGYAFQNLIKQQERINSQREEIERQRKMLAKRKPPAMGQAPPATNEQKQRKSKTNGAENETPSSGNTELKDTAPALGAHSLLRLTLAEYHEQEEIFKLRLGHLKKEEAEIQAELERLERVRNLHIRELKRIHNEDNSQFKDHPTLNDRYLLLHLLGRGGFSEVYKAFDLTEQRYVAVKIHQLNKNWRDEKKENYHKHACREYRIHKELDHPRIVKLYDYFSLDTDSFCTVLEYCEGNDLDFYLKQHKLMSEKEARSIIMQIVNALKYLNEIKPPIIHYDLKPGNILLVNGTACGEIKITDFGLSKIMDDDSYNSVDGMELTSQGAGTYWYLPPECFVVGKEPPKISNKVDVWSVGVIFYQCLYGRKPFGHNQSQQDILQENTILKATEVQFPPKPVVTPEAKAFIRRCLAYRKEDRIDVQQLACDPYLLPHIRKSVSTSSPAGAAIASTSGASNNSSSN
modifications: autophosphorylated (not co-expressed with the lambda phosphatase); 41 phosphosites out of 67 possible Ser/Thr sites, mapped in Fig. 3c
notes: Tousled-like kinase 2 (TLK2), human; lacks the 1-190 N-terminal fragment, holds the CC region, the kinase domain and the C-tail; also called active homodimer (ΔN-TLK2); source: E. coli NiCo21(DE3) or Rosetta (DE3) pLysS, without lambda phosphatase, purified (Ni-NTA, monoQ, heparin, SEC)
  binding result: binds

B3: ΔN-TLK2-KD, kinase-dead ΔN-TLK2 (D613A) (domain or fragment, human, UniProt Q86UE8 191-772, looked up)
chain: TEHSCSSQKQISIQHRQTQSDLTIEKISALENSKNSDLEKKEGRIDDLLRANCDLRRQIDEQQKMLEKYKERLNRCVTMSKKLLIEKSKQEKMACRDKSMQDRLRLGHFTTVRHGASFTEQWTDGYAFQNLIKQQERINSQREEIERQRKMLAKRKPPAMGQAPPATNEQKQRKSKTNGAENETPSSGNTELKDTAPALGAHSLLRLTLAEYHEQEEIFKLRLGHLKKEEAEIQAELERLERVRNLHIRELKRIHNEDNSQFKDHPTLNDRYLLLHLLGRGGFSEVYKAFDLTEQRYVAVKIHQLNKNWRDEKKENYHKHACREYRIHKELDHPRIVKLYDYFSLDTDSFCTVLEYCEGNDLDFYLKQHKLMSEKEARSIIMQIVNALKYLNEIKPPIIHYDLKPGNILLVNGTACGEIKITAFGLSKIMDDDSYNSVDGMELTSQGAGTYWYLPPECFVVGKEPPKISNKVDVWSVGVIFYQCLYGRKPFGHNQSQQDILQENTILKATEVQFPPKPVVTPEAKAFIRRCLAYRKEDRIDVQQLACDPYLLPHIRKSVSTSSPAGAAIASTSGASNNSSSN
notes: Tousled-like kinase 2 (TLK2), human; ΔN-TLK2 (lacks the 1-190 N-terminal fragment) with the D613A mutation; also called ΔN-TLK-KD; kinase-dead homodimer; source: E. coli NiCo21(DE3) or Rosetta (DE3) pLysS, purified
  binding result: binds
